In this assay the target is ESYT2_Frag (human) (UniProt A0FGR8). Kind of assay: CDI HuProt native protein microarray (High-Spec cross-reactivity assay).

B1: CD1-M8 (antibody, V domains shown)
VH: EVQLQQSGPELVKPGASVKMSCKASGYTFTDYYIHWVKQSHGKGLEWIGYIFPNNGGNGYSQKFKGKATMTVDKSSSTAYMELRSLTSEDSAVYYCARGGYDAGFVYWGQGTLVTVSA
VL: DIVMSQSPSSLAVSAGEKVTMSCKSSQSLFNSGARKNFLAWYQQKPGQSPKLLIYWASTRESGVPDRFTGSGSGTDFTLTISSVQAEDLAVYYCKQSYYLITFGAGTKLELK
In turn, B1 yielded an F635 of 1860, a S-Score of 2.15 and a Z-Score of 5.71.

The values above are taken from patent US20240174741A1.
